Assay in all cases: holdup assay
Set-up in all cases: key: below the threshold = too weak to quantify, mostly under pKd 3.1 to 4

The target of one assay is T1, DFNB31_1, Q9P202.
T1 sequence (Q9P202 135-233, limits assumed, looked up): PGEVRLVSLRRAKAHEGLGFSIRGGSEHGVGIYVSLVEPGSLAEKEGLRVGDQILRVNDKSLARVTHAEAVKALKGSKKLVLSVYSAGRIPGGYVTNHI
To be noted: plain residues with an end cap or a label only (N-terminal biotin on a linker: ado-ado).

The target in the next assay is DLG4_1, P78352. To be noted: plain residues with an end cap or a label only (N-terminal biotin on a linker: ado-ado).
Chain of DLG4_1, P78352 (P78352 62-152): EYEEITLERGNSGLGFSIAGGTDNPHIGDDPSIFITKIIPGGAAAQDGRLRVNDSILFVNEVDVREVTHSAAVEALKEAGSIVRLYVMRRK
In another assay the target is HTRA1, Q92743. To be noted: plain residues with an end cap or a label only (N-terminal biotin on a linker: ado-ado).
Chain of HTRA1, Q92743 (Q92743 360-477): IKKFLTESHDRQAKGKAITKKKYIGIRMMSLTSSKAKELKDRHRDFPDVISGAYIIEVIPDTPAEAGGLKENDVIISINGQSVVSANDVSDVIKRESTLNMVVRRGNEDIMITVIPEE
In a further assay the target is Inadl_8, Q8NI35. To be noted: plain residues with an end cap or a label only (N-terminal biotin on a linker: ado-ado).
Chain of Inadl_8, Q8NI35 (Q8NI35 1425-1530): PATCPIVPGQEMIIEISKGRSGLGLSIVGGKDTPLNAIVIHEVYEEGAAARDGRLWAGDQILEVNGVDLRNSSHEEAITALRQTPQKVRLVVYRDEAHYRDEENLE
Another assay concerns the target LNX1_1, Q8TBB1. To be noted: plain residues with an end cap or a label only (N-terminal biotin on a linker: ado-ado).
The next assay concerns the target MAGI1_2, Q96QZ7. To be noted: plain residues with an end cap or a label only (N-terminal biotin on a linker: ado-ado).
The target of another assay is MAGI2_2, Q86UL8. To be noted: plain residues with an end cap or a label only (N-terminal biotin on a linker: ado-ado).
Chain of MAGI2_2, Q86UL8 (Q86UL8 410-522): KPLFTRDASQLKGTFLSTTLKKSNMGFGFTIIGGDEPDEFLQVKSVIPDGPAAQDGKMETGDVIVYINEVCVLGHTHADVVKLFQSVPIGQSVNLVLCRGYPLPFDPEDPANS
Another assay deals with MAGI2_5, Q86UL8. The settings on record: plain residues with an end cap or a label only (N-terminal biotin on a linker: ado-ado).
Chain of MAGI2_5, Q86UL8 (Q86UL8 915-1017): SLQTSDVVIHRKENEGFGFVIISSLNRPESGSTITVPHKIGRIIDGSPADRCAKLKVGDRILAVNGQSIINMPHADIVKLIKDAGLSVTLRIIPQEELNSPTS
The next assay addresses MAGI3_2, Q5TCQ9. To be noted: plain residues with an end cap or a label only (N-terminal biotin on a linker: ado-ado).
For another assay, the target named is T2, PDZRN3_1, Q9UPQ7.
T2 sequence (Q9UPQ7 244-349, limits assumed, looked up): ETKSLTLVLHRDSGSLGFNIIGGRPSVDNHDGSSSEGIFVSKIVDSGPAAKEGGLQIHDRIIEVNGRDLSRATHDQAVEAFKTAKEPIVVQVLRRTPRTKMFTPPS
The settings on record: plain residues with an end cap or a label only (N-terminal biotin on a linker: ado-ado).

Another assay has as its target T3, RHPN1, Q8TCX5.
T3 sequence (Q8TCX5 508-602, limits assumed, looked up): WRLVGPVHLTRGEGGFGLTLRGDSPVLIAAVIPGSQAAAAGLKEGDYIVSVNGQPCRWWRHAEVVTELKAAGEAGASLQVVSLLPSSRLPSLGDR
The settings on record: plain residues with an end cap or a label only (N-terminal biotin on a linker: ado-ado).

For the next assay, the target named is SCRIB_1, Q14160. The settings on record: plain residues with an end cap or a label only (N-terminal biotin on a linker: ado-ado).
Chain of SCRIB_1, Q14160 (Q14160 718-814): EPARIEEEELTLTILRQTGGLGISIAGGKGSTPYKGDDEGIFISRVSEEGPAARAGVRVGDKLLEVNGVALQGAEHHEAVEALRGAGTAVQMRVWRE
The target of another assay is T4, SNTA1, Q13424.
T4 sequence (Q13424 82-180, limits assumed, looked up): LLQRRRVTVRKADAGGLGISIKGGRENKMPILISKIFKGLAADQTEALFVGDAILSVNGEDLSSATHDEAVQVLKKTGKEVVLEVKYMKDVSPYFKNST

Another assay addresses TJP2_1, Q9UDY2. The settings on record: plain residues with an end cap or a label only (N-terminal biotin on a linker: ado-ado).
The target in the next assay is T5, MPDZ_10, O75970.
T5 sequence (O75970 1624-1722, limits assumed, looked up): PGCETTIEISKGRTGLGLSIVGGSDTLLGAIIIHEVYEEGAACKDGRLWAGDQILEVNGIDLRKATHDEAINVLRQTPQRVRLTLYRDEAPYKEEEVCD
To be noted: plain residues with an end cap or a label only (N-terminal biotin on a linker: ahx).

Another assay has as its target T6, PDZD7_3, Q9H5P4.
T6 sequence (Q9H5P4 857-944, limits assumed, looked up): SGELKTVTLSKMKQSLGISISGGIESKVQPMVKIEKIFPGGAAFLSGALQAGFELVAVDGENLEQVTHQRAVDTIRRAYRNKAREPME
The settings on record: plain residues with an end cap or a label only (N-terminal biotin on a linker: ahx).

A further assay addresses ARHGEF12, Q9NZN5-2. To be noted: plain residues with an end cap or a label only (N-terminal biotin on a linker: ahx).
A further assay addresses DLG2_2, Q15700. The settings on record: plain residues with an end cap or a label only (N-terminal biotin on a linker: ahx).
For the next assay, the target named is T7, DLG3_3, Q92796.
T7 sequence (Q92796 374-475, limits assumed, looked up): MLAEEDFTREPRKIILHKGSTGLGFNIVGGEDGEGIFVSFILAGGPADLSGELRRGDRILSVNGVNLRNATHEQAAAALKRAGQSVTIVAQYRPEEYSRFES
The settings on record: plain residues with an end cap or a label only (N-terminal biotin on a linker: ahx).

The target in a further assay is MAGI2_4, Q86UL8.
Chain of MAGI2_4, Q86UL8 (Q86UL8 772-865): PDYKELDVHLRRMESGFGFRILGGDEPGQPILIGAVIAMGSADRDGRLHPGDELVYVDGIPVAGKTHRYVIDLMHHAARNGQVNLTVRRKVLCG
For the next assay, the target named is PARD3_3, Q8TEW0. To be noted: plain residues with an end cap or a label only (N-terminal biotin on a linker: ahx).
Chain of PARD3_3, Q8TEW0 (Q8TEW0 582-685): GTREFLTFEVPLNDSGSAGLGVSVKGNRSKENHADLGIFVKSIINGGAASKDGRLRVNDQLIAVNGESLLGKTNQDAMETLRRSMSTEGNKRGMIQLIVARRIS
The next assay concerns the target T8, SHANK1, Q9Y566.
T8 sequence (Q9Y566 658-767, limits assumed, looked up): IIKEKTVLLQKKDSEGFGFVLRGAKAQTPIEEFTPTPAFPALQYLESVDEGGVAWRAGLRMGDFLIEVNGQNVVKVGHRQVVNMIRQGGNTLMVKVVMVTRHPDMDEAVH
To be noted: plain residues with an end cap or a label only (N-terminal biotin on a linker: ahx).

A further assay concerns the target T9, SNTB1, Q13884.
T9 sequence (Q13884 107-205, limits assumed, looked up): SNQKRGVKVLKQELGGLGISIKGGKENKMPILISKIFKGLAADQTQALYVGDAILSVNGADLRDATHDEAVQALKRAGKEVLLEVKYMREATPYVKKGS
The settings on record: plain residues with an end cap or a label only (N-terminal biotin on a linker: ahx).

The target of a further assay is SNX27, Q96L92. To be noted: plain residues with an end cap or a label only (N-terminal biotin on a linker: ahx).
The target in the next assay is T10, SYNJ2BP, P57105.
T10 sequence (P57105 8-110, limits assumed, looked up): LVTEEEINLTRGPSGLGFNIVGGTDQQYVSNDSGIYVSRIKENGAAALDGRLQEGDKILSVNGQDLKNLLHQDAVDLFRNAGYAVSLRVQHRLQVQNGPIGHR
The settings on record: plain residues with an end cap or a label only (N-terminal biotin on a linker: ahx).

For the next assay, the target named is DLG2_3, Q15700. The settings on record: plain residues with an end cap or a label only (N-terminal biotin on a linker: ado-ado).
The target in the next assay is LAP2, Q96RT1. To be noted: plain residues with an end cap or a label only (N-terminal biotin on a linker: ado-ado).
Chain of LAP2, Q96RT1 (Q96RT1 other isoform, or with tags, fused parts or gaps): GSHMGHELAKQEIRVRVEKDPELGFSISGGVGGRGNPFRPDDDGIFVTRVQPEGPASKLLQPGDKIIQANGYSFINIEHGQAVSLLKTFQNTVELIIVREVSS
For a further assay, the target named is T11, LIN7B, Q9HAP6.
T11 sequence (Q9HAP6 88-185, limits assumed, looked up): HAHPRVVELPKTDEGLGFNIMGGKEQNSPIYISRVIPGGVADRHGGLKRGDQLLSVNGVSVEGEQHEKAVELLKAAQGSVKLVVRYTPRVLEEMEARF
The settings on record: plain residues with an end cap or a label only (N-terminal biotin on a linker: ado-ado).

Another assay deals with T12, LIN7C, Q9NUP9.
T12 sequence (Q9NUP9 88-185, limits assumed, looked up): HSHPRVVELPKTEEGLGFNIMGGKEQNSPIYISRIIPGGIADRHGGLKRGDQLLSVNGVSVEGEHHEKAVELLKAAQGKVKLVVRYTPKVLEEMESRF
The settings on record: plain residues with an end cap or a label only (N-terminal biotin on a linker: ado-ado).

Another assay addresses T13, MPDZ_12, O75970.
T13 sequence (O75970 1857-1958, limits assumed, looked up): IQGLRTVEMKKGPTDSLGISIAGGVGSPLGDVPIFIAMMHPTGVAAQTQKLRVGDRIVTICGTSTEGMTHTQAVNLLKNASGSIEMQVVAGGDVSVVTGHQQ
The settings on record: plain residues with an end cap or a label only (N-terminal biotin on a linker: ado-ado).

The target of another assay is PDLIM1, O00151. To be noted: plain residues with an end cap or a label only (N-terminal biotin on a linker: ado-ado).
Chain of PDLIM1, O00151 (O00151 1-87): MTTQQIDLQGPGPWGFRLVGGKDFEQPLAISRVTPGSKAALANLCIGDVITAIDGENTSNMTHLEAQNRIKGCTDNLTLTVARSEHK
A further assay has as its target SCRIB_2, Q14160. The settings on record: plain residues with an end cap or a label only (N-terminal biotin on a linker: ado-ado).
The target of another assay is T14, ARHGAP21, Q5T5U3.
T14 sequence (Q5T5U3 45-169, limits assumed, looked up): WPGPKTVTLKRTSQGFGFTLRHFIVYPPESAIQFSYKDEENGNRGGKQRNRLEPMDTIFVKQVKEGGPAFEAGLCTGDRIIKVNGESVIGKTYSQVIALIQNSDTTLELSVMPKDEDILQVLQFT
The settings on record: plain residues with an end cap or a label only (N-terminal biotin on a linker: ado-ado).

In the next assay the target is HTRA2, O43464. To be noted: plain residues with an end cap or a label only (N-terminal biotin on a linker: ado-ado).
Chain of HTRA2, O43464 (O43464 355-458): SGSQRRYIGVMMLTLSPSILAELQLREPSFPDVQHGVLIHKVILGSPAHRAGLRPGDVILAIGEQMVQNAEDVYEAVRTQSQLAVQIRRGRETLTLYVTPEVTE
The target in a further assay is T15, HTRA3, P83110.
T15 sequence (P83110 354-453, limits assumed, looked up): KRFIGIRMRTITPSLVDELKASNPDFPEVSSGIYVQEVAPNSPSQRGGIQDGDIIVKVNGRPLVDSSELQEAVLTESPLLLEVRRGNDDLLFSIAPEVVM
The settings on record: plain residues with an end cap or a label only (N-terminal biotin on a linker: ado-ado).

The next assay addresses IL16_4, Q14005. The settings on record: plain residues with an end cap or a label only (N-terminal biotin on a linker: ado-ado).
A further assay has as its target Inadl_3, Q8NI35. The settings on record: plain residues with an end cap or a label only (N-terminal biotin on a linker: ado-ado).
The next assay has as its target Inadl_9, Q8NI35. To be noted: plain residues with an end cap or a label only (N-terminal biotin on a linker: ado-ado).
The next assay addresses LNX1_2, Q8TBB1. The settings on record: plain residues with an end cap or a label only (N-terminal biotin on a linker: ado-ado).
The next assay concerns the target T16, PARD3B_1, Q8TEW8.
T16 sequence (Q8TEW8 196-299, limits assumed, looked up): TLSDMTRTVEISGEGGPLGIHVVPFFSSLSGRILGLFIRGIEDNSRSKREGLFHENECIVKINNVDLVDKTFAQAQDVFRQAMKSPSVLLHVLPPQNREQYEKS
To be noted: plain residues with an end cap or a label only (N-terminal biotin on a linker: ado-ado).

For another assay, the target named is PTPN3, P26045. The settings on record: plain residues with an end cap or a label only (N-terminal biotin on a linker: ado-ado).
Chain of PTPN3, P26045 (P26045 505-587): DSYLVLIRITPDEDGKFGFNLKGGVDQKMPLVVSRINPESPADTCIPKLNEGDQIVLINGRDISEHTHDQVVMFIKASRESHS
The next assay deals with T17, SNTG2, Q9NY99.
T17 sequence (Q9NY99 68-166, limits assumed, looked up): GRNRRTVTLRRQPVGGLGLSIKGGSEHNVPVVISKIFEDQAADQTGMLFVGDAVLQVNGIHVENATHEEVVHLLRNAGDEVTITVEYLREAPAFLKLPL
To be noted: plain residues with an end cap or a label only (N-terminal biotin on a linker: ado-ado).

The next assay concerns the target TJP1_2, Q07157. The settings on record: plain residues with an end cap or a label only (N-terminal biotin on a linker: ado-ado).
Setting [1] is: plain residues with an end cap or a label only (N-terminal biotin on a linker: ado-ado).
Where [2] appears, read: plain residues with an end cap or a label only (N-terminal biotin on a linker: ahx).

Chain of LNX1_2, Q8TBB1 (Q8TBB1 371-470): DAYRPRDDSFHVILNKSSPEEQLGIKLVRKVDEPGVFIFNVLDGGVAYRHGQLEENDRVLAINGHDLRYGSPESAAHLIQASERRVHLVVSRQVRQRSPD
Chain of SCRIB_2, Q14160 (Q14160 857-960): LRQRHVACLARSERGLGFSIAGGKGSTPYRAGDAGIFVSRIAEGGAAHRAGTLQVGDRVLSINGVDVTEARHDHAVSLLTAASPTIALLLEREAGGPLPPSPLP
Chain of TJP2_1, Q9UDY2 (Q9UDY2 24-128): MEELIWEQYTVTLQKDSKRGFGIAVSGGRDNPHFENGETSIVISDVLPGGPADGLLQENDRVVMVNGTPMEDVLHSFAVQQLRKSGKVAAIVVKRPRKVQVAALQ
Chain of IL16_4, Q14005 (Q14005 1229-1329): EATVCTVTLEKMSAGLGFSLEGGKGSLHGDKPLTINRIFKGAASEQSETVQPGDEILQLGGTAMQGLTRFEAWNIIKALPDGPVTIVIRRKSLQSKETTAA
Chain of TJP1_2, Q07157 (Q07157 181-274): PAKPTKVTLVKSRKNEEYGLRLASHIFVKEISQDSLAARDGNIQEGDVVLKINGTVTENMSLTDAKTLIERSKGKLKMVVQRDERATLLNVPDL
Chain of Inadl_9, Q8NI35 (Q8NI35 1530-1615): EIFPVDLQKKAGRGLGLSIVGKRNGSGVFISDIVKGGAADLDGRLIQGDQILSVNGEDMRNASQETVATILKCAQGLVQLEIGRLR
Chain of ARHGEF12, Q9NZN5-2 (Q9NZN5 other isoform, or with tags, fused parts or gaps): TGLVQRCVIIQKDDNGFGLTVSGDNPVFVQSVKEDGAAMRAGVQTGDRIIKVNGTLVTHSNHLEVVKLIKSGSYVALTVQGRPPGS
Chain of Inadl_3, Q8NI35 (Q8NI35 359-469): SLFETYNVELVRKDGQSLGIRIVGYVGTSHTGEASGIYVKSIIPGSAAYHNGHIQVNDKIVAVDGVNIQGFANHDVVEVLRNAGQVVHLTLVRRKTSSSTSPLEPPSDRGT
Chain of LNX1_1, Q8TBB1 (Q8TBB1 261-371): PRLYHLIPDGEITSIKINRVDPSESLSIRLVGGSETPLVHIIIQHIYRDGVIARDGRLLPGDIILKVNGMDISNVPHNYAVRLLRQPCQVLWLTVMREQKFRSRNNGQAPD
Chain of MAGI3_2, Q5TCQ9 (Q5TCQ9 398-503): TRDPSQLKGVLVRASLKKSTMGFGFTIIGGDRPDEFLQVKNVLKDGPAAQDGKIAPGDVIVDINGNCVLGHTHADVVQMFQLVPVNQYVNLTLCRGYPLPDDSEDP
Chain of MAGI1_2, Q96QZ7 (Q96QZ7 456-580): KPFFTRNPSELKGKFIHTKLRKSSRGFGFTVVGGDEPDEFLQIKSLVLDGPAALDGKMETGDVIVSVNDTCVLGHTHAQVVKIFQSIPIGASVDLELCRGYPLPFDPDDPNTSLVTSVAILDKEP

With LPAHHNATRL [SLC34A1, Q06495], the pKd in the assay with DFNB31_1, Q9P202 amounted to 3.73; in the assay with DLG4_1, P78352, 3.51; with HTRA1, Q92743 it was 3.73; with Inadl_8, Q8NI35 it was 3.52; with LNX1_1, Q8TBB1, 3.72; with MAGI1_2, Q96QZ7, 3.8. Further, the negative logarithm of the Kd (pKd) came out at 3.87 with MAGI2_2, Q86UL8; 3.69 in the assay with MAGI2_5, Q86UL8; 3.69 with MAGI3_2, Q5TCQ9; 3.77 with PDZRN3_1, Q9UPQ7; 3.82 in the assay with RHPN1, Q8TCX5; 3.82 with SCRIB_1, Q14160. Also, the pKd with SNTA1, Q13424 (setting [1]) is 3.71; with TJP2_1, Q9UDY2, 3.54.

As to PSASCAVTAA [PDLIM4, P50479], the pKd in the assay with MPDZ_10, O75970 was determined as 3.76; with PDZD7_3, Q9H5P4, 3.48.

On to LSDPSVSTVV [GRIN1, Q05586], for which the pKd in the assay with ARHGEF12, Q9NZN5-2 was found to be 3.71; with DLG2_2, Q15700 it was 3.71; with DLG3_3, Q92796 it was 3.57; with MAGI2_4, Q86UL8 (setting [2]) it was 3.83; in the assay with PARD3_3, Q8TEW0, 3.56; with SHANK1, Q9Y566, 3.72. Further, the pKd worked out at 3.68 in the assay with SNTA1, Q13424 (setting [2]); 3.55 with SNTB1, Q13884; 3.61 in the assay with SNX27, Q96L92; 3.72 with SYNJ2BP, P57105.

As for YLEPVLSSEL [ATP2A2, P16615], the pKd with DLG2_3, Q15700 was 3.66; with HTRA1, Q92743, 3.62; with LAP2, Q96RT1, 3.53; with LIN7B, Q9HAP6, 3.83; with LIN7C, Q9NUP9 it was 3.8; with MPDZ_12, O75970 it was 3.55. In addition, the negative logarithm of the Kd (pKd) came to 3.48 with PDLIM1, O00151; 3.7 in the assay with PDZRN3_1, Q9UPQ7; 3.56 with SCRIB_2, Q14160.

As for VYPNAKVELV [PDLIM4_iso2, P50479], the pKd with ARHGAP21, Q5T5U3 amounted to 3.8; with HTRA2, O43464 it was 3.69; in the assay with HTRA3, P83110, 3.62; in the assay with IL16_4, Q14005, 3.83; in the assay with Inadl_3, Q8NI35, 3.54; with Inadl_9, Q8NI35 it was 3.57. In addition, the pKd in the assay with LNX1_2, Q8TBB1 stood at 3.54; with MAGI2_4, Q86UL8 (setting [1]), 3.56; in the assay with PARD3B_1, Q8TEW8 it was 3.6; in the assay with PTPN3, P26045 it was 3.87; with SNTG2, Q9NY99, 3.48; in the assay with TJP1_2, Q07157, 3.52.

(Values after paper PMC9482650, “Quantitative fragmentomics allow affinity mapping of interactomes” (Nature Communications, 2022).)
